# T1: APBA2_1, Q99767
# T1 sequence (Q99767 563-664, limits assumed, looked up): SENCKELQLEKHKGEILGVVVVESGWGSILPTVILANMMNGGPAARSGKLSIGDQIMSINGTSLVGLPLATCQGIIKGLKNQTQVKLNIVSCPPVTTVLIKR
# T2: TJP3_3, O95049
# T2 sequence (O95049 375-456, limits assumed, looked up): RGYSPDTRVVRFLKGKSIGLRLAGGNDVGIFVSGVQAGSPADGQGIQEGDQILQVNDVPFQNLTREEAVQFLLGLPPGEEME
# T3: DVL3, Q92997
# T3 sequence (Q92997 244-331, limits assumed, looked up): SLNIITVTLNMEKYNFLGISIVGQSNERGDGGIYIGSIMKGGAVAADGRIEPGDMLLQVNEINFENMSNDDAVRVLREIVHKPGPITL
# T4: SNTA1, Q13424
# T4 sequence (Q13424 82-180, limits assumed, looked up): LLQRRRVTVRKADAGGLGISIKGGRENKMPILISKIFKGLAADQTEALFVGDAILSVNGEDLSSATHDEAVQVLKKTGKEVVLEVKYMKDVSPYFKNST
# T5: PCLO, Q9Y6V0
# T5 sequence (Q9Y6V0 4491-4600, limits assumed, looked up): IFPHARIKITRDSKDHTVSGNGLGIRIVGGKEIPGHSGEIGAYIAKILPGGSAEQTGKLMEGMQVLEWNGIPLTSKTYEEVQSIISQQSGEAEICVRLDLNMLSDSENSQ
# T6: CARD11, Q9BXL7
# T6 sequence (Q9BXL7 662-765, limits assumed, looked up): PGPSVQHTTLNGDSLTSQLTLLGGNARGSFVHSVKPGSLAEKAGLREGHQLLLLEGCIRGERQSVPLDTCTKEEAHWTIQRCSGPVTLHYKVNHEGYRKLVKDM
# T7: MPP6, Q9NZW5
# T7 sequence (Q9NZW5 125-219, limits assumed, looked up): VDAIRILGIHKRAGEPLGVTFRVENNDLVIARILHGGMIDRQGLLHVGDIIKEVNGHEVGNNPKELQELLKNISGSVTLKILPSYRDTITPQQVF
# T8: TIAM2, Q8IVF5
# T8 sequence (Q8IVF5 885-986, limits assumed, looked up): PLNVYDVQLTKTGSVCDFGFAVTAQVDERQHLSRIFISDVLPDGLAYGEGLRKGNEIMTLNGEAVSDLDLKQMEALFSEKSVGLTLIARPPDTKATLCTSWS
# T9: ARHGEF11, O15085
# T9 sequence (O15085 42-136, limits assumed, looked up): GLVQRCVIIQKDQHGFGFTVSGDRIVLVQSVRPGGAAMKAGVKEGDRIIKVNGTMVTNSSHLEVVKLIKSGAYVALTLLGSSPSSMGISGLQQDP
# T10: NHERF3_1, Q5T2W1
# T10 sequence (Q5T2W1 4-100, limits assumed, looked up): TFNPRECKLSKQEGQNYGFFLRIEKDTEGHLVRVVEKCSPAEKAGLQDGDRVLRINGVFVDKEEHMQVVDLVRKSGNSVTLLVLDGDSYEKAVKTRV
# T11: FRMPD1, Q5SYB0
# T11 sequence (Q5SYB0 52-145, limits assumed, looked up): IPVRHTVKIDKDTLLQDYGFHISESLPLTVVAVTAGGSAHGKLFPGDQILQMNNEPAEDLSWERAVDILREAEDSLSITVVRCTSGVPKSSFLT
# T12: GRIP1_2, Q9Y3R0
# T12 sequence (Q9Y3R0 145-248, limits assumed, looked up): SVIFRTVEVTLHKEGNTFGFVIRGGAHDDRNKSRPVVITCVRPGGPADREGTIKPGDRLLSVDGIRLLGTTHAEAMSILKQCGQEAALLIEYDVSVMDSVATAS
# T13: APBA3_1, O96018
# T13 sequence (O96018 389-490, limits assumed, looked up): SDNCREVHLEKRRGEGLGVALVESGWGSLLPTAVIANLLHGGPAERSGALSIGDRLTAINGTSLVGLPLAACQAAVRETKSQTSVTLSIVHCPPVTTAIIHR
# Biological target: T1, APBA2_1, Q99767
# Experiment: holdup assay
# Design: key: below the threshold = too weak to quantify, mostly under pKd 3.1 to 4
# Settings: plain residues with an end cap or a label only (N-terminal biotin on a linker: ado-ado)
row,Binder,pKd
1,"PASAKGPLGV [CLDN19, Q8N6F1]",below the threshold

# Biological target: NOS1, P29475
# Experiment: holdup assay
# Design: key: below the threshold = too weak to quantify, mostly under pKd 3.1 to 4
# Settings: plain residues with an end cap or a label only (N-terminal biotin on a linker: ado-ado)
# NOS1, P29475, sequence (P29475 9-101): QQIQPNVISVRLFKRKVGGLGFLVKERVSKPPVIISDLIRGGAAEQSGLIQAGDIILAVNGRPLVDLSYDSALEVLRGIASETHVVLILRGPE
row,Binder,pKd
1,"PASAKGPLGV [CLDN19, Q8N6F1]",below the threshold

# Biological target: GRIP2_6, Q9C0E4
# Experiment: holdup assay
# Design: key: below the threshold = too weak to quantify, mostly under pKd 3.1 to 4
# Settings: plain residues with an end cap or a label only (N-terminal biotin on a linker: ado-ado)
# GRIP2_6, Q9C0E4, sequence (Q9C0E4 648-740): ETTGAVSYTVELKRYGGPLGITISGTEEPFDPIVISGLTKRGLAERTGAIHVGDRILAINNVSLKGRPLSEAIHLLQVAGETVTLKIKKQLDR
row,Binder,pKd
1,"PASAKGPLGV [CLDN19, Q8N6F1]",below the threshold

# Biological target: NHERF4_2, Q86UT5
# Experiment: holdup assay
# Design: key: below the threshold = too weak to quantify, mostly under pKd 3.1 to 4
# Settings: plain residues with an end cap or a label only (N-terminal biotin on a linker: ado-ado)
# NHERF4_2, Q86UT5, sequence (Q86UT5 220-308): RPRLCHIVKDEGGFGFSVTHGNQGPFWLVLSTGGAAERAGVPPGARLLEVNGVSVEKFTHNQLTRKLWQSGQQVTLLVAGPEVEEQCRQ
row,Binder,pKd
1,"PASAKGPLGV [CLDN19, Q8N6F1]",below the threshold

# Biological target: T2, TJP3_3, O95049
# Experiment: holdup assay
# Design: key: below the threshold = too weak to quantify, mostly under pKd 3.1 to 4
# Settings: plain residues with an end cap or a label only (N-terminal biotin on a linker: ado-ado)
row,Binder,pKd
1,"PASAKGPLGV [CLDN19, Q8N6F1]",below the threshold

# Biological target: Inadl_6, Q8NI35
# Experiment: holdup assay
# Design: key: below the threshold = too weak to quantify, mostly under pKd 3.1 to 4
# Settings: plain residues with an end cap or a label only (N-terminal biotin on a linker: ado-ado)
# Inadl_6, Q8NI35, sequence (Q8NI35 1058-1167): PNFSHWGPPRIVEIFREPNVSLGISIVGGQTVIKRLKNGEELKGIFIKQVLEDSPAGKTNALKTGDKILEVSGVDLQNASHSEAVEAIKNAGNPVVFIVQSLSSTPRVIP
row,Binder,pKd
1,"PASAKGPLGV [CLDN19, Q8N6F1]",below the threshold

# Biological target: T3, DVL3, Q92997
# Experiment: holdup assay
# Design: key: below the threshold = too weak to quantify, mostly under pKd 3.1 to 4
# Settings: plain residues with an end cap or a label only (N-terminal biotin on a linker: ado-ado)
row,Binder,pKd
1,"PASAKGPLGV [CLDN19, Q8N6F1]",below the threshold

# Biological target: T4, SNTA1, Q13424
# Experiment: holdup assay
# Design: key: below the threshold = too weak to quantify, mostly under pKd 3.1 to 4
# Settings: plain residues with an end cap or a label only (N-terminal biotin on a linker: ado-ado)
row,Binder,pKd
1,"PASAKGPLGV [CLDN19, Q8N6F1]",below the threshold

# Biological target: T5, PCLO, Q9Y6V0
# Experiment: holdup assay
# Design: key: below the threshold = too weak to quantify, mostly under pKd 3.1 to 4
# Settings: plain residues with an end cap or a label only (N-terminal biotin on a linker: ado-ado)
row,Binder,pKd
1,"PASAKGPLGV [CLDN19, Q8N6F1]",below the threshold

# Biological target: T6, CARD11, Q9BXL7
# Experiment: holdup assay
# Design: key: below the threshold = too weak to quantify, mostly under pKd 3.1 to 4
# Settings: plain residues with an end cap or a label only (N-terminal biotin on a linker: ado-ado)
row,Binder,pKd
1,"PASAKGPLGV [CLDN19, Q8N6F1]",below the threshold

# Biological target: T7, MPP6, Q9NZW5
# Experiment: holdup assay
# Design: key: below the threshold = too weak to quantify, mostly under pKd 3.1 to 4
# Settings: plain residues with an end cap or a label only (N-terminal biotin on a linker: ado-ado)
row,Binder,pKd
1,"PASAKGPLGV [CLDN19, Q8N6F1]",below the threshold

# Biological target: T8, TIAM2, Q8IVF5
# Experiment: holdup assay
# Design: key: below the threshold = too weak to quantify, mostly under pKd 3.1 to 4
# Settings: plain residues with an end cap or a label only (N-terminal biotin on a linker: ado-ado)
row,Binder,pKd
1,"PASAKGPLGV [CLDN19, Q8N6F1]",below the threshold

# Biological target: MAGI2_6, Q86UL8
# Experiment: holdup assay
# Design: key: below the threshold = too weak to quantify, mostly under pKd 3.1 to 4
# Settings: plain residues with an end cap or a label only (N-terminal biotin on a linker: ado-ado)
# MAGI2_6, Q86UL8, sequence (Q86UL8 1141-1229): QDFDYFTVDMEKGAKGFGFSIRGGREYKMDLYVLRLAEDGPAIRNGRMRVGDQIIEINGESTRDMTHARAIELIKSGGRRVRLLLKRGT
row,Binder,pKd
1,"PASAKGPLGV [CLDN19, Q8N6F1]",below the threshold

# Biological target: IL16_1, Q14005
# Experiment: holdup assay
# Design: key: below the threshold = too weak to quantify, mostly under pKd 3.1 to 4
# Settings: plain residues with an end cap or a label only (N-terminal biotin on a linker: ado-ado)
# IL16_1, Q14005, sequence (Q14005 210-306): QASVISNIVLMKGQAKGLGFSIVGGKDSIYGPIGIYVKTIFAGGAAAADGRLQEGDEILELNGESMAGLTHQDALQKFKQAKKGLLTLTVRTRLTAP
row,Binder,pKd
1,"PASAKGPLGV [CLDN19, Q8N6F1]",below the threshold

# Biological target: GRIP2_3, Q9C0E4
# Experiment: holdup assay
# Design: key: below the threshold = too weak to quantify, mostly under pKd 3.1 to 4
# Settings: plain residues with an end cap or a label only (N-terminal biotin on a linker: ado-ado)
# GRIP2_3, Q9C0E4, sequence (Q9C0E4 238-339): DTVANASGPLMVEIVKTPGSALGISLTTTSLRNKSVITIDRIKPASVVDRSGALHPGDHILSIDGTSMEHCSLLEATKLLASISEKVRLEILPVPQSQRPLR
row,Binder,pKd
1,"PASAKGPLGV [CLDN19, Q8N6F1]",below the threshold

# Biological target: T9, ARHGEF11, O15085
# Experiment: holdup assay
# Design: key: below the threshold = too weak to quantify, mostly under pKd 3.1 to 4
# Settings: plain residues with an end cap or a label only (N-terminal biotin on a linker: ado-ado)
row,Binder,pKd
1,"PASAKGPLGV [CLDN19, Q8N6F1]",below the threshold

# Biological target: T10, NHERF3_1, Q5T2W1
# Experiment: holdup assay
# Design: key: below the threshold = too weak to quantify, mostly under pKd 3.1 to 4
# Settings: plain residues with an end cap or a label only (N-terminal biotin on a linker: ado-ado)
row,Binder,pKd
1,"PASAKGPLGV [CLDN19, Q8N6F1]",below the threshold

# Biological target: HTRA2, O43464
# Experiment: holdup assay
# Design: key: below the threshold = too weak to quantify, mostly under pKd 3.1 to 4
# Settings: plain residues with an end cap or a label only (N-terminal biotin on a linker: ado-ado)
# HTRA2, O43464, sequence (O43464 355-458): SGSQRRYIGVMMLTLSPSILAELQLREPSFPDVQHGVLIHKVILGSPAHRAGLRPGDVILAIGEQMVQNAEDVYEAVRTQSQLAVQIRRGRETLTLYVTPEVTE
row,Binder,pKd
1,"PASAKGPLGV [CLDN19, Q8N6F1]",below the threshold

# Biological target: T11, FRMPD1, Q5SYB0
# Experiment: holdup assay
# Design: key: below the threshold = too weak to quantify, mostly under pKd 3.1 to 4
# Settings: plain residues with an end cap or a label only (N-terminal biotin on a linker: ado-ado)
row,Binder,pKd
1,"PASAKGPLGV [CLDN19, Q8N6F1]",below the threshold

# Biological target: DLG5_1, Q8TDM6
# Experiment: holdup assay
# Design: key: below the threshold = too weak to quantify, mostly under pKd 3.1 to 4
# Settings: plain residues with an end cap or a label only (N-terminal biotin on a linker: ado-ado)
# DLG5_1, Q8TDM6, sequence (Q8TDM6 617-713): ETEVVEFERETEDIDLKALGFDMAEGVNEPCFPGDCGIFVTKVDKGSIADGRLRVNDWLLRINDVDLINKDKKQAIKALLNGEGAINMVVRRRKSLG
row,Binder,pKd
1,"PASAKGPLGV [CLDN19, Q8N6F1]",below the threshold

# Biological target: T12, GRIP1_2, Q9Y3R0
# Experiment: holdup assay
# Design: key: below the threshold = too weak to quantify, mostly under pKd 3.1 to 4
# Settings: plain residues with an end cap or a label only (N-terminal biotin on a linker: ado-ado)
row,Binder,pKd
1,"PASAKGPLGV [CLDN19, Q8N6F1]",below the threshold

# Biological target: PICK1, Q9NRD5
# Experiment: holdup assay
# Design: key: below the threshold = too weak to quantify, mostly under pKd 3.1 to 4
# Settings: plain residues with an end cap or a label only (N-terminal biotin on a linker: ado-ado)
# PICK1, Q9NRD5, sequence (Q9NRD5 17-115): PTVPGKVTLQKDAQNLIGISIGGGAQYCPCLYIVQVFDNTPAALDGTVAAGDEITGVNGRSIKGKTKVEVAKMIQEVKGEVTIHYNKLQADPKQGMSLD
row,Binder,pKd
1,"PASAKGPLGV [CLDN19, Q8N6F1]",below the threshold

# Biological target: T13, APBA3_1, O96018
# Experiment: holdup assay
# Design: key: below the threshold = too weak to quantify, mostly under pKd 3.1 to 4
# Settings: plain residues with an end cap or a label only (N-terminal biotin on a linker: ado-ado)
row,Binder,pKd
1,"PASAKGPLGV [CLDN19, Q8N6F1]",below the threshold

# Biological target: CASK, O14936
# Experiment: holdup assay
# Design: key: below the threshold = too weak to quantify, mostly under pKd 3.1 to 4
# Settings: plain residues with an end cap or a label only (N-terminal biotin on a linker: ado-ado)
# CASK, O14936, sequence (O14936 487-570): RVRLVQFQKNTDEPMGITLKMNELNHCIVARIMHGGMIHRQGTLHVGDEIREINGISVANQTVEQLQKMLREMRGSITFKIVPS
row,Binder,pKd
1,"PASAKGPLGV [CLDN19, Q8N6F1]",below the threshold

# Biological target: ARHGEF12, Q9NZN5-2
# Experiment: holdup assay
# Design: key: below the threshold = too weak to quantify, mostly under pKd 3.1 to 4
# Settings: plain residues with an end cap or a label only (N-terminal biotin on a linker: ado-ado)
# ARHGEF12, Q9NZN5-2, sequence (Q9NZN5 other isoform, or with tags, fused parts or gaps): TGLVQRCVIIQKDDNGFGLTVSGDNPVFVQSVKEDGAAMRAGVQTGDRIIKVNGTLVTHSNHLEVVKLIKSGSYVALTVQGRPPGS
row,Binder,pKd
1,"PASAKGPLGV [CLDN19, Q8N6F1]",below the threshold

# Source: publication PMC9482650, “Quantitative fragmentomics allow affinity mapping of interactomes” (Nature Communications, 2022)
